From patent US20210388087A1 (Chugai, published 2021)

Target: T1, CD3 epsilon homodimer protein (UniProt P07766 23-126)
T1 construct: immobilized on Sensor chip CM4 by amine coupling; also called CD3 (CD3 epsilon)
Experiment: SPR (Biacore T200), CD3 epsilon homodimer on CM4 chip, one-arm antibody as analyte, 25 C;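 note: homodimer attached to the sensor surface via amine coupling, HBS-EP+ used as running buffer during binding runs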

T1 sequence (P07766 23-126): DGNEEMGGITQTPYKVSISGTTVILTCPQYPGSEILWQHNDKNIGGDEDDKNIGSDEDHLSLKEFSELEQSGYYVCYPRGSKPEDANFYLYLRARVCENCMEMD

ratio of amounts bound (altered form / CE115HA000)	Binder
0.91	CE115HA000 K52R one-arm antibody (antibody, human IgG1, kappa, L234A L235A, N297A, name in Kabat numbering) heavy: QVQLVESGGGVVQPGRSLRLSCAASGFTFSNAWMHWVRQAPGKGLEWVAQIRAKSNNYATYYAESVKGRFTISRDDSKNSLYLQMNSLKTEDTAVYYCRYVHYGAYYGVDAWGQGTTVTVSSASTKGPSVFPLAPSSKSTSGGTAALGCLVKDYFPEPVTVSWNSGALTSGVHTFPAVLQSSGLYSLSSVVTVPSSSLGTQTYICNVNHKPSNTKVDKKVEPKSCDKTHTCPPCPAPEAAGGPSVFLFPPKPKDTLMISRTPEVTCVVVDVSHEDPEVKFNWYVDGVEVHNAKTKPREEQYASTYRVVSVLTVLHQDWLNGKEYKCKVSNKALPAPIEKTISKAKGQPREPQVYTLPPSRCELTKNQVSLSCAVKGFYPSDIAVEWESNGQPENNYKTTPPVLDSDGSFFLVSKLTVDKSRWQQGNVFSCSVMHEALHNHYTQKSLSLSPDYKDDDDK EPKSSDKTHTCPPCPAPELLGGPSVFLFPPKPKDTLMISRTPEVTCVVVDVSHEDPEVKFNWYVDGVEVHNAKTKPREEQYNSTYRVVSVLTVLHQDWLNGKEYKCKVSNKALPAPIEKTISKAKGQPREPQVCTLPPSRDELTKNQVSLWCLVKGFYPSDIAVEWESNGQPENNYKTTPPVLDSDGSFFLYSKLTVDKSRWQQGNVFSCSVMHEALHNRYTQKSLSLSP light: DIVMTQSPLSLPVTPGEPASISCRSSQSLVHSNRNTYLHWYQQKPGQAPRLLIYKVSNRFSGVPDRFSGSGSGTDFTLKISRVEAEDVGVYYCGQGTQVPYTFGQGTKLEIKRTVAAPSVFIFPPSDEQLKSGTASVVCLLNNFYPREAKVQWKVDNALQSGNSQESVTEQDSKDSTYSLSSTLTLSKADYEKHKVYACEVTHQGLSSPVTKSFNRGEC
0.28	CE115HA000 K52S one-arm antibody (antibody, human IgG1, kappa, L234A L235A, N297A, name in Kabat numbering) heavy: QVQLVESGGGVVQPGRSLRLSCAASGFTFSNAWMHWVRQAPGKGLEWVAQISAKSNNYATYYAESVKGRFTISRDDSKNSLYLQMNSLKTEDTAVYYCRYVHYGAYYGVDAWGQGTTVTVSSASTKGPSVFPLAPSSKSTSGGTAALGCLVKDYFPEPVTVSWNSGALTSGVHTFPAVLQSSGLYSLSSVVTVPSSSLGTQTYICNVNHKPSNTKVDKKVEPKSCDKTHTCPPCPAPEAAGGPSVFLFPPKPKDTLMISRTPEVTCVVVDVSHEDPEVKFNWYVDGVEVHNAKTKPREEQYASTYRVVSVLTVLHQDWLNGKEYKCKVSNKALPAPIEKTISKAKGQPREPQVYTLPPSRCELTKNQVSLSCAVKGFYPSDIAVEWESNGQPENNYKTTPPVLDSDGSFFLVSKLTVDKSRWQQGNVFSCSVMHEALHNHYTQKSLSLSPDYKDDDDK EPKSSDKTHTCPPCPAPELLGGPSVFLFPPKPKDTLMISRTPEVTCVVVDVSHEDPEVKFNWYVDGVEVHNAKTKPREEQYNSTYRVVSVLTVLHQDWLNGKEYKCKVSNKALPAPIEKTISKAKGQPREPQVCTLPPSRDELTKNQVSLWCLVKGFYPSDIAVEWESNGQPENNYKTTPPVLDSDGSFFLYSKLTVDKSRWQQGNVFSCSVMHEALHNRYTQKSLSLSP light: DIVMTQSPLSLPVTPGEPASISCRSSQSLVHSNRNTYLHWYQQKPGQAPRLLIYKVSNRFSGVPDRFSGSGSGTDFTLKISRVEAEDVGVYYCGQGTQVPYTFGQGTKLEIKRTVAAPSVFIFPPSDEQLKSGTASVVCLLNNFYPREAKVQWKVDNALQSGNSQESVTEQDSKDSTYSLSSTLTLSKADYEKHKVYACEVTHQGLSSPVTKSFNRGEC
